According to patent US20140341881:

Key:
[1] = target: T1, CFP-VGSLR-YFP-6xHis substrate (peptide G1)
T1 chain: GALGGVGSLRGST

[2] = target: T2, CFP-TVDYA-YFP-6xHis substrate (peptide G9)
T2 chain: GALGGTVDYAGST

[3] = target: T3, CFP-LSRDN-YFP-6xHis substrate (peptide E7)
T3 chain: GALGGLSRDNGST

[4] = target: T4, CFP-RQTND-YFP-6xHis substrate (peptide C11)
T4 chain: GALGGRQTNDGST

[5] = target: T5, CFP-TTDLR-YFP-6xHis substrate (clone E4)
T5 chain: GALGGTTDLRGST

[6] = target: T6, CFP-RGKTN-YFP-6xHis substrate (peptide D9)
T6 chain: GALGGRGKTNGST

[7] = target: T7, CFP-QPNGY-YFP-6xHis substrate (clone F1)
T7 chain: GALGGQPNGYGST

[8] = target: T8, CFP-MQVKH-YFP-6xHis substrate (clone E6)
T8 chain: GALGGMQVKHGST

[9] = target: T9, CFP-EAPAK-YFP-6xHis substrate (clone G7)
T9 chain: GALGGEAPAKGST

[10] = target: T10, CFP-SAVRP-YFP-6xHis substrate (clone E11)
T10 chain: GALGGSAVRPGST

[11] = target: T11, CFP-SDKVY-YFP-6xHis substrate (clone C5)
T11 chain: GALGGSDKVYGST

[12] = target: T12, CFP-RVDTG-YFP-6xHis substrate (clone D11)
T12 chain: GALGGRVDTGGST

[13] = target: T13, CFP-YQSLN-YFP-6xHis substrate (peptide F10)
T13 chain: GALGGYQSLNGST

[14] = target: T14, CFP-HETLK-YFP-6xHis substrate (clone G11)
T14 chain: GALGGHETLKGST

[15] = target: T15, CFP-RVTST-YFP-6xHis substrate (peptide E12)
T15 chain: GALGGRVTSTGST

[16] = target: T16, CFP-LQRAI-YFP-6xHis substrate (peptide E8)
T16 chain: GALGGLQRAIGST

[17] = target: T17, CFP-MQATK-YFP-6xHis substrate (clone F4)
T17 chain: GALGGMQATKGST

[18] = target: T18, CFP-KLKET-YFP-6xHis substrate (clone F5)
T18 chain: GALGGKLKETGST

[19] = target: T19, CFP-QRLRD-YFP-6xHis substrate (peptide F11)
T19 chain: GALGGQRLRDGST

[20] = target: T20, CFP-AYGLA-YFP-6xHis substrate (clone G5)
T20 chain: GALGGAYGLAGST

[21] = target: T21, CFP-PVHLY-YFP-6xHis substrate (clone F12)
T21 chain: GALGGPVHLYGST

[22] = target: T22, CFP-YQNSS-YFP-6xHis substrate (clone C9)
T22 chain: GALGGYQNSSGST

[23] = target: T23, CFP-GHRIN-YFP-6xHis substrate (clone F7)
T23 chain: GALGGGHRINGST

[24] = target: T24, CFP-VGLYD-YFP-6xHis substrate (peptide F6)
T24 chain: GALGGVGLYDGST

[25] = target: T25, CFP-LSGGR-YFP-6xHis substrate (peptide E2)
T25 chain: GALGGLSGGRGST

[26] = target: T26, CFP-VVMKD-YFP-6xHis substrate (peptide E10)
T26 chain: GALGGVVMKDGST

[27] = target: T27, CFP-STKGI-YFP-6xHis substrate (clone G3)
T27 chain: GALGGSTKGIGST

[28] = target: T28, CFP-TSYLN-YFP-6xHis substrate (peptide D7)
T28 chain: GALGGTSYLNGST

[29] = target: T29, CFP-NQRSS-YFP-6xHis substrate (peptide E5)
T29 chain: GALGGNQRSSGST

[30] = target: T30, CFP-AYGYK-YFP-6xHis substrate (peptide E1)
T30 chain: GALGGAYGYKGST

[31] = target: T31, CFP-NNKLR-YFP-6xHis substrate (peptide E9)
T31 chain: GALGGNNKLRGST

[32] = target: T32, CFP-PDRHM-YFP-6xHis substrate (peptide F3)
T32 chain: GALGGPDRHMGST

B1: human kallikrein 14 (hK14) (protein)
chain: IIGGHTCTRSSQPWQAALLAGPRRRFLCGGALLSGQWVITAAHCGRPILQVALGKHNLRRWEATQQVLRVVRQVTHPNYNSRTHDNDLMLLQLQQPARIGRAVRPIEVTQACASPGTSCRVSGWGTISSPIARYPASLQCVNINISPDEVCQKAYPRTITPGMVCAGVPQGGKDSCQGDSGGPLVCRGQLQGLVSWGMERCALPGYPGVYTNLCKYRSWIEETMRDK
[1]
  Kcat/Km: 481000 M⁻¹ s⁻¹
  kcat/Km: 481000 M⁻¹ s⁻¹
[2]
  Kcat/Km: 134000 M⁻¹ s⁻¹
  kcat/Km: 134000 M⁻¹ s⁻¹
[3]
  Kcat/Km: 127000 M⁻¹ s⁻¹
  kcat/Km: 127000 M⁻¹ s⁻¹
[4]
  Kcat/Km: 415000 M⁻¹ s⁻¹
  kcat/Km: 415000 M⁻¹ s⁻¹
[5]
  kcat/Km: 27000 M⁻¹ s⁻¹
[6]
  Kcat/Km: 80000 M⁻¹ s⁻¹
  kcat/Km: 80000 M⁻¹ s⁻¹
[7]
  kcat/Km: 6000 M⁻¹ s⁻¹
[8]
  kcat/Km: 34000 M⁻¹ s⁻¹
[9]
  kcat/Km: 8000 M⁻¹ s⁻¹
[10]
  kcat/Km: 5000 M⁻¹ s⁻¹
[11]
  kcat/Km: 9000 M⁻¹ s⁻¹
[12]
  kcat/Km: 15000 M⁻¹ s⁻¹
[13]
  Kcat/Km: 12000 M⁻¹ s⁻¹
  kcat/Km: 12000 M⁻¹ s⁻¹
[14]
  kcat/Km: 9000 M⁻¹ s⁻¹
CFP-GGGGG-YFP
  hydrolysis of fluorescent substrate: is not hydrolyzed by hK14 (not shown)
[15]
  Kcat/Km: 26000 M⁻¹ s⁻¹
  kcat/Km: 26000 M⁻¹ s⁻¹
[16]
  Kcat/Km: 367000 M⁻¹ s⁻¹
  kcat/Km: 367000 M⁻¹ s⁻¹
[17]
  kcat/Km: 8000 M⁻¹ s⁻¹
[18]
  kcat/Km: 19000 M⁻¹ s⁻¹
[19]
  Kcat/Km: 307000 M⁻¹ s⁻¹
  kcat/Km: 307000 M⁻¹ s⁻¹
[20]
  kcat/Km: 6000 M⁻¹ s⁻¹
[21]
  kcat/Km: 7000 M⁻¹ s⁻¹
[22]
  kcat/Km: 6000 M⁻¹ s⁻¹
[23]
  kcat/Km: 12000 M⁻¹ s⁻¹
[24]
  Kcat/Km: 18000 M⁻¹ s⁻¹
  kcat/Km: 18000 M⁻¹ s⁻¹
[25]
  Kcat/Km: 207000 M⁻¹ s⁻¹
  kcat/Km: 207000 M⁻¹ s⁻¹
[26]
  Kcat/Km: 15000 M⁻¹ s⁻¹
  kcat/Km: 15000 M⁻¹ s⁻¹
[27]
  kcat/Km: 20000 M⁻¹ s⁻¹
[28]
  Kcat/Km: 9000 M⁻¹ s⁻¹
  kcat/Km: 9000 M⁻¹ s⁻¹
[29]
  Kcat/Km: 388000 M⁻¹ s⁻¹
  fold selectivity of cleavage against PK: 27 and 78 fold more selective for hK14 than for hK2 and PK, respectively
  fold selectivity of cleavage against hK2: 27 and 78 fold more selective for hK14 than for hK2 and PK, respectively
  kcat/Km: 388000 M⁻¹ s⁻¹
[30]
  Kcat/Km: 24000 M⁻¹ s⁻¹
  kcat/Km: 24000 M⁻¹ s⁻¹
[31]
  Kcat/Km: 74000 M⁻¹ s⁻¹
  kcat/Km: 74000 M⁻¹ s⁻¹
[32]
  Kcat/Km: 243000 M⁻¹ s⁻¹
  kcat/Km: 243000 M⁻¹ s⁻¹

B2: human neutrophil elastase (HNE) (protein)
chain: IVGGRRARPHAWPFMVSLQLRGGHFCGATLIAPNFVMSAAHCVANVNVRAVRVVLGAHNLSRREPTRQVFAVQRIFENGYDPVNLLNDIVILQLNGSATINANVQVAQLPAQGRRLGNGVQCLAMGWGLLGRNRGIASVLQELNVTVVTSLCRRSNVCTLVRGRQAGVCFGDSGSPLVCNGLIHGIASFVRGGCASGLYPDAFAPVAQFVNWIDSIIQ
[2]
  Kcat/Km: 181000 M⁻¹ s⁻¹
[13]
  Kcat/Km: 49000 M⁻¹ s⁻¹
[15]
  Kcat/Km: 200000 M⁻¹ s⁻¹
[16]
  Kcat/Km: 209000 M⁻¹ s⁻¹
[26]
  Kcat/Km: 65000 M⁻¹ s⁻¹
[28]
  Kcat/Km: 90000 M⁻¹ s⁻¹
